The data set has as its target T1, Rme1 (Trichoderma reesei) (UniProt G0RR27).
T1 sequence: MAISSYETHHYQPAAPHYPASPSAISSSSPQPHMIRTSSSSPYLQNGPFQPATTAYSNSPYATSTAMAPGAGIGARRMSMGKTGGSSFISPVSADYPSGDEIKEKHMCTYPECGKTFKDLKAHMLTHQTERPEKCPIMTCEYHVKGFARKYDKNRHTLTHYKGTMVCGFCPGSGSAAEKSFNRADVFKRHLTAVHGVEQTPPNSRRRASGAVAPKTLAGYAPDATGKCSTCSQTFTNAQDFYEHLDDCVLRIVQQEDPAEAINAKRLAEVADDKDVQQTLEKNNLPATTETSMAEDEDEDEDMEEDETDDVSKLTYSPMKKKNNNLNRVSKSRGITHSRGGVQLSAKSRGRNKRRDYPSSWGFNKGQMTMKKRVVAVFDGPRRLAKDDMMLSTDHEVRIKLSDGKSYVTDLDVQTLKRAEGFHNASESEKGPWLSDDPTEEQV
The data set can be described thus: EMSA. Conditions: 20 mM Tris-HCl pH 7.4, 50 mM KCl, 5% glycerol, 1 mM DTT, 50 µg/mL BSA, 50 µM zinc sulfate; 100 ng probe, 25 min at room temperature; 6% native PAGE at 4 °C. On the technique in general: A gel shift assay detects complexes by their altered migration in electrophoresis.

On to “AGCAGCAGCGGCAATAACAAATACAGTAACAAATGGGGACCAGAATGCGAATTTGAAACGACAGGAACGAACACGGAGGAGGGGGCGGGGGTTGGCACGTTGGCTAAAGAATATTTCTACCTATCCACAGATGTAGC (double strand) [Pswo probe]”, for which the binding entry is reported as “no binding”.

(Values after article PMC12470938.)
